Results as given in patent US20190314470A1 (UNITED STATES GOVERNMENT AS REPRESENTED BY THE DEPARTMENT …, published 2019).

Biological target: T1, K-RAS protein (recombinant, abcam) (UniProt P01116-2 1-188, limits assumed)
T1 construct: Bought recombinant protein used in solution in the far western; One partner was labelled with the cysteine-reactive dye NT-647
Assay: quantification of the anti-RAS far western of FIG. 2E; two VAMP3 preparations
Method: Far Western Blotting. […] The membrane was then washed in 5% milk in TBST and incubated with horseradish peroxidase (HRP)-conjugated secondary antibody for 1 hr at RT. The membrane was then developed using the SuperSignal West Dura reagent (ThermoFischer). Quantification was done using ImageJ. For loading controls, duplicate membranes were spotted and immediately stained with a Coomassie Stain Kit (Biorad).

binding result: no binding (tested: 2 µg spotted)
B1: VAMP3 (recombinant, LSbiosciences / MyBiosource) (other, UniProt Q15836 1-77, looked up)
chain: MSTGPTAATGSNRRLQQTQNQVDEVVDIMRVNVDKVLERDQKLSELDDRADALQAGASQFETSAAKLKRKYWWKNCK
notes: Two commercial preparations were spotted in the far western; also called vesicle-associated membrane protein 3
